The values below come from US20210238260.

The labels stand for the following.
B1: FIXa-Y155F/K247N/N249S/R318Y/R338E (protein)
chain 1: YNSGKLEEFVQGNLERECMEEKCSFEEAREVFENTERTTEFWKQYVDGDQCESNPCLNGGSCKDDINSYECWCPFGFEGKNCELDVTCNIKNGRCEQFCKNSADNKVVCSCTEGYRLAENQKSCEPAVPFPCGRVSVSQTSKLTR
chain 2: VVGGEDAKPGQFPWQVVLNGKVDAFCGGSIVNEKWIVTAAHCVETGVKITVVAGEHNIEETEHTEQNRSVIRIIPHHNYNAAINKYNHDIALLELDEPLVLNSYVTPICIADKEYTNIFLKFGSGYVSGWGRVFHKGYSALVLQYLRVPLVDRATCLESTKFTIYNNMFCAGFHEGGRDSCQGDSGGPHVTEVEGTSFLTGIISWGEECAMKGKYGIYTKVSRYVNWIKEKTKLT
B2: FIXa-K247N/N249S/T343R/R403E/E410N (protein)
chain 1: B1 chain 1
chain 2: B1 chain 2 with Y138R, E158R, T163R, R223E, E230N
B3: FIXa-Y155F/K247N/N249S/R318Y/R403E (protein)
chain 1: B1 chain 1
chain 2: B1 chain 2 with E158R, R223E
B4: FIXa-Y155F/K247N/N249S/T343R/E410N (protein)
chain 1: B1 chain 1
chain 2: B1 chain 2 with Y138R, E158R, T163R, E230N
B5: FIXa-Y155F/K247N/N249S/R403E/E410N (protein)
chain 1: B1 chain 1
chain 2: B1 chain 2 with Y138R, E158R, R223E, E230N
B6: FIXa-Y155F/R318Y/T343R/E410N (protein)
chain 1: B1 chain 1
chain 2: B1 chain 2 with N67K, S69N, E158R, T163R, E230N
B7: FIXa-Y155F/K247N/N249S/R318Y/R338E/T343R (protein)
chain 1: B1 chain 1
chain 2: B1 chain 2 with T163R
B8: FIXa-Y155F/R338E/T343R/R403E/E410N (protein)
chain 1: B1 chain 1
chain 2: B1 chain 2 with N67K, S69N, Y138R, T163R, R223E, E230N
B9: FIXa-Y155F/K247N/N249S/R318Y/R338E/T343R/R403E/E410N (protein)
chain 1: B1 chain 1
chain 2: B1 chain 2 with T163R, R223E, E230N
B10: FIXa-K247N/N249S/R318Y/R338E/T343R (protein)
chain 1: B1 chain 1
chain 2: B1 chain 2 with T163R
B11: FIXa-Y155F/R338E/T343R/E410N (protein)
chain 1: B1 chain 1
chain 2: B1 chain 2 with N67K, S69N, Y138R, T163R, E230N
B12: FIXa-R318Y/R338E/T343R (protein)
chain 1: B1 chain 1
chain 2: B1 chain 2 with N67K, S69N, T163R
B13: FIXa-R318Y/R338E/T343R/E410N (protein)
chain 1: B1 chain 1
chain 2: B1 chain 2 with N67K, S69N, T163R, E230N
B14: FIXa-K247N/N249S/R318Y/R338E/R403E (protein)
chain 1: B1 chain 1
chain 2: B1 chain 2 with R223E
B15: FIXa-Y155F/K247N/N249S/R318Y/E410N (protein)
chain 1: B1 chain 1
chain 2: B1 chain 2 with E158R, E230N
B16: FIXa-Y155F/K247N/N249S/R318Y/R338E/T343R/E410N (protein)
chain 1: B1 chain 1
chain 2: B1 chain 2 with T163R, E230N
B17: FIXa-Y155F/R318Y/T343R/R403E (protein)
chain 1: B1 chain 1
chain 2: B1 chain 2 with N67K, S69N, E158R, T163R, R223E
B18: FIXa-Y155F/R318Y/R338E/T343R (protein)
chain 1: B1 chain 1
chain 2: B1 chain 2 with N67K, S69N, T163R
B19: FIXa-Y155F/K247N/N249S/R338E/T343R (protein)
chain 1: B1 chain 1
chain 2: B1 chain 2 with Y138R, T163R
B20: FIXa-Y155F/K247N/N249S/R318Y/T343R (protein)
chain 1: B1 chain 1
chain 2: B1 chain 2 with E158R, T163R
B21: FIXa-Y155F/K247N/N249S/R338E/R403E (protein)
chain 1: B1 chain 1
chain 2: B1 chain 2 with Y138R, R223E
B22: FIXa-Y155F/K247N/N249S/R318Y/R338E/R403E (protein)
chain 1: B1 chain 1
chain 2: B1 chain 2 with R223E
B23: FIXa-K247N/N249S/R318Y/R338E/T343R/R403E/E410N (protein)
chain 1: B1 chain 1
chain 2: B1 chain 2 with T163R, R223E, E230N
B24: FIXa-Y155F/T343R/R403E/E410N (protein)
chain 1: B1 chain 1
chain 2: B1 chain 2 with N67K, S69N, Y138R, E158R, T163R, R223E, E230N
B25: FIXa-K228N/I251S/R318Y/R338E/R403E/E410N (protein)
chain 1: B1 chain 1
chain 2: B1 chain 2 with K48N, N67K, S69N, I71S, R223E, E230N

Residue numbers refer to the chain shown, from its start. Names and notes keep the numbering of the source.

The target in one series is Factor X (FX), P00742.
Chain of Factor X (FX), P00742 (P00742 whole entry, looked up): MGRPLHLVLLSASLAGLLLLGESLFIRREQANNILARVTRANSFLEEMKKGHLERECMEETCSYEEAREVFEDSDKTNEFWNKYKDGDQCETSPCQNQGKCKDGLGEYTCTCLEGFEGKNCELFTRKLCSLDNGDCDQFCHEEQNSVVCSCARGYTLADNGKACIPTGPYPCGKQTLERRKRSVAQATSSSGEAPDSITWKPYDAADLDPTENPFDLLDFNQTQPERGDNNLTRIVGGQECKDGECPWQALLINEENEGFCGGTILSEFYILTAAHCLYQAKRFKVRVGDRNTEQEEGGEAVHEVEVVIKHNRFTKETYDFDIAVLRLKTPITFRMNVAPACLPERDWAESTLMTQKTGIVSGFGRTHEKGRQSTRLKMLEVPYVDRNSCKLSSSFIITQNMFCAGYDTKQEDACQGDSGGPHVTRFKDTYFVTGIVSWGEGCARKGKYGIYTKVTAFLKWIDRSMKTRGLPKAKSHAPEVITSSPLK
Take B1: the “% of WT kcat/KM” value turned out to be 632%; the KM – broadly, the substrate concentration at which the rate is half of its maximum – was 0.0263 µM; the kcat/KM for FX activation (Xase: FVIIIa, PC/PS vesicles, Ca2+) came out at 2.9e+08 M⁻¹ s⁻¹.

On to B2, for which the “% of WT kcat/KM” value was found to be 285%; the kcat (s^-1) of FX activation by FIXa variant in the Xase complex (FVIIIa, PC/PS vesicles, Ca2+), fluorogenic FXa read-out was 8 s⁻¹; the kcat/KM for FX activation (Xase: FVIIIa, PC/PS vesicles, Ca2+) came out at 1.3e+08 M⁻¹ s⁻¹.

As to B3, the “% of WT kcat/KM” value is 34%; the KM came to 0.109 µM; the kcat/KM for FX activation (Xase: FVIIIa, PC/PS vesicles, Ca2+) came to 1.6e+07 M⁻¹ s⁻¹.

B4: the “% of WT kcat/KM” value is recorded as 599%; the kcat (s^-1) of FX activation by FIXa variant in the Xase complex (FVIIIa, PC/PS vesicles, Ca2+), fluorogenic FXa read-out came to 7.9 s⁻¹; the kcat/KM for FX activation (Xase: FVIIIa, PC/PS vesicles, Ca2+) worked out at 2.8e+08 M⁻¹ s⁻¹.

For B5, the “% of WT kcat/KM” value was determined as 53%; the kcat (s^-1) of FX activation by FIXa variant in the Xase complex (FVIIIa, PC/PS vesicles, Ca2+), fluorogenic FXa read-out turned out to be 2.7 s⁻¹; the kcat/KM for FX activation (Xase: FVIIIa, PC/PS vesicles, Ca2+) came out at 2.4e+07 M⁻¹ s⁻¹.

Take B6: the “% of WT kcat/KM” value was found to be 326%; the kcat (s^-1) of FX activation by FIXa variant in the Xase complex (FVIIIa, PC/PS vesicles, Ca2+), fluorogenic FXa read-out amounted to 5 s⁻¹; the kcat/KM for FX activation (Xase: FVIIIa, PC/PS vesicles, Ca2+) was 1.5e+08 M⁻¹ s⁻¹.

For B7, the “% of WT kcat/KM” value came out at 772%; the kcat (s^-1) of FX activation by FIXa variant in the Xase complex (FVIIIa, PC/PS vesicles, Ca2+), fluorogenic FXa read-out worked out at 8.5 s⁻¹; the kcat/KM for FX activation (Xase: FVIIIa, PC/PS vesicles, Ca2+) amounted to 3.6e+08 M⁻¹ s⁻¹.

B8: the KM came to 0.0259 µM.

With B9, the KM turned out to be 0.0257 µM.

B10: the “% of WT kcat/KM” value came to 840%; the kcat (s^-1) of FX activation by FIXa variant in the Xase complex (FVIIIa, PC/PS vesicles, Ca2+), fluorogenic FXa read-out came out at 8 s⁻¹; the kcat/KM for FX activation (Xase: FVIIIa, PC/PS vesicles, Ca2+) stood at 3.9e+08 M⁻¹ s⁻¹.

Regarding B11, the “% of WT kcat/KM” value worked out at 761%; the kcat (s^-1) of FX activation by FIXa variant in the Xase complex (FVIIIa, PC/PS vesicles, Ca2+), fluorogenic FXa read-out was found to be 6 s⁻¹; the kcat/KM for FX activation (Xase: FVIIIa, PC/PS vesicles, Ca2+) is 3.5e+08 M⁻¹ s⁻¹.

B12: the “% of WT kcat/KM” value was 324%; the kcat (s^-1) of FX activation by FIXa variant in the Xase complex (FVIIIa, PC/PS vesicles, Ca2+), fluorogenic FXa read-out worked out at 4.5 s⁻¹; the kcat/KM for FX activation (Xase: FVIIIa, PC/PS vesicles, Ca2+) came to 1.5e+08 M⁻¹ s⁻¹; the “proteolytic cleavage and activation of purified factor X” value was “catalyzes the proteolytic cleavage and activation of purified factor X to the same extent in the presence of (1) poly-L-lysine phospholipid/calcium, and (3) factor VIIIa/phospholipid/calcium”.

For B13, the “catalytic activity (kcat/KM) for activation of FX” value is “displayed some of the greatest increases in catalytic activity”.

In the case of B14, the kcat of FX activation by FIXa (Xase complex with FVIIIa, PC/PS vesicles, Ca2+) was 10.5 s⁻¹.

As to B15, the “% of WT kcat/KM” value came out at 155%; the KM amounted to 0.0488 µM; the kcat/KM for FX activation (Xase: FVIIIa, PC/PS vesicles, Ca2+) is 7.2e+07 M⁻¹ s⁻¹.

As to B16, the “% of WT kcat/KM” value is on record as 1091%; the KM is 0.0177 µM; the kcat/KM for FX activation (Xase: FVIIIa, PC/PS vesicles, Ca2+) is 5e+08 M⁻¹ s⁻¹.

With B17, the “% of WT kcat/KM” value is 154%; the kcat (s^-1) of FX activation by FIXa variant in the Xase complex (FVIIIa, PC/PS vesicles, Ca2+), fluorogenic FXa read-out was determined as 5 s⁻¹; the kcat/KM for FX activation (Xase: FVIIIa, PC/PS vesicles, Ca2+) amounted to 7.1e+07 M⁻¹ s⁻¹.

Take B18: the “% of WT kcat/KM” value is 771%; the kcat (s^-1) of FX activation by FIXa variant in the Xase complex (FVIIIa, PC/PS vesicles, Ca2+), fluorogenic FXa read-out worked out at 7.9 s⁻¹; the kcat/KM for FX activation (Xase: FVIIIa, PC/PS vesicles, Ca2+) was 3.6e+08 M⁻¹ s⁻¹.

In the case of B19, the “% of WT kcat/KM” value stood at 1579%; the KM came out at 0.0153 µM; the kcat/KM for FX activation (Xase: FVIIIa, PC/PS vesicles, Ca2+) is 7.3e+08 M⁻¹ s⁻¹.

Take B20: the “% of WT kcat/KM” value came to 549%; the KM turned out to be 0.0421 µM; the kcat/KM for FX activation (Xase: FVIIIa, PC/PS vesicles, Ca2+) was determined as 2.5e+08 M⁻¹ s⁻¹.

With B21, the “% of WT kcat/KM” value is recorded as 299%; the KM was found to be 0.0409 µM; the kcat/KM for FX activation (Xase: FVIIIa, PC/PS vesicles, Ca2+) came out at 1.4e+08 M⁻¹ s⁻¹.

Consider B22, for which the kcat of FX activation by FIXa (Xase complex with FVIIIa, PC/PS vesicles, Ca2+) was determined as 5.7 s⁻¹.

Turning to B23, the KM was 0.0292 µM and the “catalytic activity (kcat/KM) for activation of FX” value is on record as “improved activity when combined with other mutations”.

For the protein B24, the “% of WT kcat/KM” value was 321%; the kcat (s^-1) of FX activation by FIXa variant in the Xase complex (FVIIIa, PC/PS vesicles, Ca2+), fluorogenic FXa read-out turned out to be 6.6 s⁻¹; the kcat/KM for FX activation (Xase: FVIIIa, PC/PS vesicles, Ca2+) is 1.5e+08 M⁻¹ s⁻¹.

As to B25, the KM is 0.0364 µM.

The target in the next series is Factor X, P00742.
Chain of Factor X, P00742 (P00742 whole entry, looked up): as above
Take B1: the kcat (commonly the number of substrate molecules converted per active site and unit of time at saturation) was found to be 7.5 s⁻¹.

As for B2, the KM is 0.06 µM.

For the protein B3, the kcat was 1.7 s⁻¹.

B4: the KM is 0.0344 µM.

Turning to B5, the KM was determined as 0.131 µM.

As to B6, the KM is 0.0403 µM.

On to B7, for which the KM was 0.0276 µM.

Regarding B8, the “% of WT kcat/KM” value was determined as 524%; the kcat amounted to 5.7 s⁻¹; the kcat/KM (in general, the turnover number divided by the Michaelis constant) came out at 2.4e+08 M⁻¹ s⁻¹.

Turning to B9, the “% of WT kcat/KM” value was 864%, the kcat was determined as 9.7 s⁻¹ and the kcat/KM came to 4e+08 M⁻¹ s⁻¹.

As for B10, the KM came to 0.0244 µM.

For the protein B11, the KM worked out at 0.0224 µM.

As for B12, the KM was found to be 0.03 µM.

Take B13: the “% of WT kcat/KM” value is 728%, the kcat is 4.9 s⁻¹ and the kcat/KM was 3.4e+08 M⁻¹ s⁻¹.

For the protein B14, the “% of WT kcat/KM” value is on record as 496% and the kcat/KM was 2.3e+08 M⁻¹ s⁻¹.

On to B15, for which the kcat worked out at 3.4 s⁻¹.

For B16, the kcat was determined as 7.7 s⁻¹.

Take B17: the KM stood at 0.0727 µM.

On to B18, for which the KM was determined as 0.0242 µM.

On to B19, for which the kcat worked out at 10.6 s⁻¹.

On to B20, for which the kcat turned out to be 10.3 s⁻¹.

Take B21: the catalytic constant (kcat) amounted to 5.3 s⁻¹.

Take B22: the “% of WT kcat/KM” value was 206% and the kcat/KM amounted to 9.5e+07 M⁻¹ s⁻¹.

As for B23, the “% of WT kcat/KM” value is recorded as 824%, the kcat was determined as 10.6 s⁻¹ and the kcat/KM amounted to 3.8e+08 M⁻¹ s⁻¹.

Regarding B24, the KM was determined as 0.0446 µM.

For the protein B25, the “% of WT kcat/KM” value is reported as 463%, the kcat worked out at 7.5 s⁻¹ and the kcat/KM worked out at 2.1e+08 M⁻¹ s⁻¹.
